Source: IntAct's records for PubMed 21151104

B1: T-box transcription factor TBX21 (Mus musculus), Q9JKD8 (parent)
chain: MGIVEPGCGDMLTGTEPMPSDEGRGPGADQQHRFFYPEPGAQDPTDRRAGSSLGTPYSGGALVPAAPGRFLGSFAYPPRAQVAGFPGPGEFFPPPAGAEGYPPVDGYPAPDPRAGLYPGPREDYALPAGLEVSGKLRVALSNHLLWSKFNQHQTEMIITKQGRRMFPFLSFTVAGLEPTSHYRMFVDVVLVDQHHWRYQSGKWVQCGKAEGSMPGNRLYVHPDSPNTGAHWMRQEVSFGKLKLTNNKGASNNVTQMIVLQSLHKYQPRLHIVEVNDGEPEAACSASNTHVFTFQETQFIAVTAYQNAEITQLKIDNNPFAKGFRENFESMYASVDTSVPSPPGPNCQLLGGDPFSPLLSNQYPVPSRFYPDLPGQPKDMISQPYWLGTPREHSYEAEFRAVSMKPTLLPSAPGPTVPYYRGQDVLAPGAGWPVAPQYPPKMSPAGWFRPMRTLPMDPGLGSSEEQGSSPSLWPEVTSLQPEPSDSGLGEGDTKRRRISPYPSSGDSSSPAGAPSPFDKETEGQFYNYFPN

Variants of: B1
Conditions: with runx1_mouse Runx1, Q03347
runx1_mouse Runx1, Q03347, sequence (Q03347 whole entry): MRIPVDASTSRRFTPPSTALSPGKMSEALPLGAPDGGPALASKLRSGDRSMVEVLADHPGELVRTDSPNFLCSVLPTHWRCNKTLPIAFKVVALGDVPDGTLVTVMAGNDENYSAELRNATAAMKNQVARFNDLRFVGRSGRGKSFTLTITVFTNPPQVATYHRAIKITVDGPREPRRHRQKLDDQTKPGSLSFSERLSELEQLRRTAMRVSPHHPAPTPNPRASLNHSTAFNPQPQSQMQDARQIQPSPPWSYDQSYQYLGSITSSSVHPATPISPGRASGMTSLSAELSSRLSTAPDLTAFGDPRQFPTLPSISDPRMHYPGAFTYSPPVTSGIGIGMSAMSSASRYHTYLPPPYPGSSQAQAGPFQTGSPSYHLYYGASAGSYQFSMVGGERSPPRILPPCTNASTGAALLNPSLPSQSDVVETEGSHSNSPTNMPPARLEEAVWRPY

Variant	effect of a mutation on the interaction
MGIVEPGCGDMLTGTEPMPSDEGRGPGADQQHRFFYPEPGAQDPTDRRAGSSLGTPYSGGALVPAAPGRFLGSFAYPPRAQVAGFPGPGEFFPPPAGAEGYPPVDGYPAPDPRAGLYPGPREDYALPAGLEVSGKLRVALSNHLLWSKFNQHQTEMIITKQGRRMFPFLSFTVAGLEPTSHYRMFVDVVLVDQHHWRYQSGKWVQCGKAEGSMPGNRLYVHPDSPNTGAHWMRQEVSFGKLKLTNNKGASNNVTQMIVLQSLHKYQPRLHIVEVNDGEPEAACSASNTHVFTFQETQFIAVTAFQNAEITQLKIDNNPFAKGFRENFESMYASVDTSVPSPPGPNCQLLGGDPFSPLLSNQYPVPSRFYPDLPGQPKDMISQPYWLGTPREHSYEAEFRAVSMKPTLLPSAPGPTVPYYRGQDVLAPGAGWPVAPQYPPKMSPAGWFRPMRTLPMDPGLGSSEEQGSSPSLWPEVTSLQPEPSDSGLGEGDTKRRRISPYPSSGDSSSPAGAPSPFDKETEGQFYNYFPN [Y304F]	disrupting interaction
